According to patent US20080274096:
“Also recorded” adds a separate entry of the source.

Columns and labels:
[1] = molecular target: amyloid β peptide1-40 in guinea pig plasma, Q60495
[2] = molecular target: amyloid β peptide1-42 in guinea pig plasma, Q60495
[3] = molecular target: Amyloid β1-40 peptide (Bachem)

B1: Recombinant human Neprilysin (R&D Systems) (protein)
chain: YDDGICKSSDCIKSAARLIQNMDATTEPCTDFFKYACGGWLKRNVIPETSSRYGNFDILRDELEVVLKDVLQEPKTEDIVAVQKAKALYRSCINESAIDSRGGEPLLKLLPDIYGWPVATENWEQKYGASWTAEKAIAQLNSKYGKKVLINLFVGTDDKNSVNHVIHIDQPRLGLPSRDYYECTGIYKEACTAYVDFMISVARLIRQEERLPIDENQLALEMNKVMELEKEIANATAKPEDRNDPMLLYNKMTLAQIQNNFSLEINGKPFSWLNFTNEIMSTVNISITNEEDVVVYAPEYLTKLKPILTKYSARDLQNLMSWRFIMDLVSSLSRTYKESRNAFRKALYGTTSETATWRRCANYVNGNMENAVGRLYVEAAFAGESKHVVEDLIAQIREVFIQTLDDLTWMDAETKKRAEEKALAIKERIGYPDDIVSNDNKLNNEYLELNYKEDEYFENIIQNLKFSQSKQLKKLREKVDKDEWISGAAVVNAFYSSGRNQIVFPAGILQPPFFSAQQSNSLNYGGIGMVIGHEITHGFDDNGRNFNKDGDLVDWWTQQSASNFKEQSQCMVYQYGNFSWDLAGGQHLNGINTLGENIADNGGLGQAYRAYQNYIKKNGEEKLLPGLDLNHKQLFFLNFAQVWCGTYRPEYAVNSIKTDVHSPGNFRIIGTLQNSAEFSEAFHCRKNSYMNPEKKCRVW
degradation of Aβ1-40 in guinea pig plasma (ELISA) [1]: Neprilysin degrades Aβ1-40 and Aβ1-42 in a time-dependent manner; also recorded: Neprilysin degrades Aβ1-40 in a dose dependent manner | degradation of Aβ1-42 in guinea pig plasma (ELISA) [2]: Neprilysin degrades Aβ1-40 and Aβ1-42 in a time-dependent manner | Amyloid β1-40 peptide degradation (percentage of peptide left, electrochemiluminescence immunoassay) [3]: degraded 88% of Amyloid β1-40 peptide (1 nM) after 3 hours incubation at 37 °C
